From patent US20250223358A1 (ANTENGENE BIOLOGICS, published 2025) come the findings set out here.

Numbering of substitutions follows the chain as printed.

The chains are these.
B1: hu147E2-L3H3 (antibody, V domains shown)
VH: EVQLVQSGAEVKKPGSSVKVSCKASGYTFTSYWMHWVRQAPGQGLEWMGNINPSNGATNYNEKFKSRVTLTVDKSTSTAYMELSSLRSEDTAVYYCARDRSSQYYFDYWGQGTTVTVSS
VL: DIQMTQSPSSLSASVGDRVTITCKSSQSLLNSRSRKNYLAWYQQKPGKAPKLLIYWASTRESGVPSRFSGSGSGTDFTLTISSLQPEDFATYYCTQSYTLRTFGGGTKVEIK
notes: humanized 147E11E2; also called hu14E2-L3H3
B2: hu147E2-L3H4 (antibody, V domains shown)
VH: B1 VH with M48I, V68A
VL: B1 VL
notes: humanized 147E11E2; also called hu14E2-L3H4
B3: hu147E2-L3H2 (antibody, V domains shown)
VH: B1 VH with L70I, V72A
VL: B1 VL
notes: humanized 147E11E2; also called hu14E2-L3H2
B4: ch147E11E2 (antibody, V domains shown)
VH: QVQLQQPGTELVKPGTSVKLSCKASGYTFTSYWMHWVKQRPGQGLEWIGNINPSNGATNYNEKFKSKATLTVDKSSSTAYMQLSSLTSEDSAVYYCARDRSSQYYFDYWGQGTTLTVSS
VL: DIVMSQSPSSLAVSAGEKVTMSCKSSQSLLNSRSRKNYLAWYQQKPGQSPKLLIYWASTRESGVPDRFTGSGSGTDFTLTISSVQAEDLAVYYCTQSYTLRTFGGGTKLEIK
B5: ch126A11A4 (antibody, V domains shown)
VH: B4 VH with T16A, G42E, A57D, S75A, S77N, A97G
VL: B4 VL with S34T, Y93F, T95K, Y98F, T99I
B6: ch147C6F3 (antibody, V domains shown)
VH: B4 VH with T16A, T30D, I51L, A57E, T58I, S66H, A97S
VL: B4 VL with M21L, S34T, P46S, I54M, S82T, S83N, T95K, T99I
B7: BMK-TCB (antibody, V domains shown)
VH: not shown
VL: QAVVTQEPSLTVSPGGTVTLTCGSSTGAVTTSNYANWVQEKPGQAFRGLIGGTNKRAPGTPARFSGSLLGGKAALTLSGAQPEDEAEYYCALWYSNLWVFGGGTKLTVL
notes: benchmark anti-CD3 antibody; also called anti-CD3 antibody developed by Roche
B8: BMK-B219 (antibody, V domains shown)
VH: EVQLVESGGGLVQPGGSLRLSCAASGFTFNTYAMNWVRQAPGKGLEWVARIRSKYNNYATYYAASVKGRFTISRDDSKNSLYLQMNSLKTEDTAVYYCARHGNFGNSYVSWFAYWGQGTLVTVSS
VL: B7 VL with A2T, G23R, E40Q, F46P, A80V
notes: benchmark anti-CD3 antibody; also called anti-CD3 antibody developed by JNJ (Johnson & Johnson)
B9: ch124E3D6 (antibody, V domains shown)
VH: B4 VH with T16A, A57D
VL: B4 VL with S34T, T95K, T99N
B10: ch127E2D3 (antibody, V domains shown)
VH: B4 VH with T16A, Q43E, N52Y, S54G, N55S, G56S, A57S, T58I
VL: B4 VL with S34T, T99N
B11: ch133B4C7 (antibody, V domains shown)
VH: B4 VH with T16A, A57D, Y60F
VL: B4 VL with K24N, S34T, T95K
B12: ch140D2B10 (antibody, V domains shown)
VH: B4 VH with T16A, A57E, T58S, S91Y
VL: B4 VL with S34T, T95K

T2 sequence (P07766 23-207, chain 1 of 3): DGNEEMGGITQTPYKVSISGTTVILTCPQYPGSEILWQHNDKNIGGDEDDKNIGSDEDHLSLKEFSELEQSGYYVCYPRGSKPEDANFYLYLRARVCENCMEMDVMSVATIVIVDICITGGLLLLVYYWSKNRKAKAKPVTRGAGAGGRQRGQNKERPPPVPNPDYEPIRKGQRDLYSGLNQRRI
T2 sequence (P04234 22-171, chain 2 of 3): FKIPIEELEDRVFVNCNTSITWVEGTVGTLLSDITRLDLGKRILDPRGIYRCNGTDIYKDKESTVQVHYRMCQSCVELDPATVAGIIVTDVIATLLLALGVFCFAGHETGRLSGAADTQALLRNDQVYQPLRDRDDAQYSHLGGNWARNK
T2 sequence (P09693 23-182, chain 3 of 3): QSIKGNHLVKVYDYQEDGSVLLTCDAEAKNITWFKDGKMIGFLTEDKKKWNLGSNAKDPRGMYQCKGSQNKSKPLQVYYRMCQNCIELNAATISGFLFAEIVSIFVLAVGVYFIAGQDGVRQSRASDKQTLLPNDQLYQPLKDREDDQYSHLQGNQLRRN

The target in the first assay is T1, cynomolgus CD3 (cynomolgus (Macaca fascicularis), UniProt Q95LI5 22-198; Q95LI8 22-171; Q95LI7 23-181).
T1 construct: whole, on cells; composition of the 'mix' not defined; also called cynoCD3
T1 sequence (Q95LI5 22-198, chain 1 of 3): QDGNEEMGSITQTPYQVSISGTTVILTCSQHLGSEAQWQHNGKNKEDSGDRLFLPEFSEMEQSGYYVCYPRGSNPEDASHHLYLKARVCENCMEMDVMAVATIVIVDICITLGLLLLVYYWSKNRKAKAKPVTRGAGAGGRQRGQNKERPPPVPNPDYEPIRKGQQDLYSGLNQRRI
T1 sequence (Q95LI8 22-171, chain 2 of 3): as the sequence (P04234 22-171, chain 2 of 3) above, with I5V, N15K, I20V, S32T, D33N, I34N, T64A, S74N, V83L, H141R counted along it
T1 sequence (Q95LI7 23-181, chain 3 of 3): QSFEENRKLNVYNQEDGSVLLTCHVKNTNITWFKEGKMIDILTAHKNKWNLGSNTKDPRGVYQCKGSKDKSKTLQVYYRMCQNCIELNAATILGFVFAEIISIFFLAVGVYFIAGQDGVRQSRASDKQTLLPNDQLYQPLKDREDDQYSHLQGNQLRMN
Put plainly: FACS on 293T-cynoCD3mix cells.
As a reminder, the EC50 is the midpoint of the concentration-response curve. A low value points to a more potent agent. For B1, the EC50 came to 1.63 nM and the Top signal stood at 19000.

Molecule B2 showed an EC50 of 1.29 nM and a Top signal of 16100.

In turn, B3 came in with an EC50 of 1.77 nM and a Top signal of 19200.

B4: the EC50 came out at 1.23 nM and the Top signal came to 17800.

A further assay has as its target T2, human CD3 (human, UniProt P07766 23-207; P04234 22-171; P09693 23-182).
T2 construct: whole, on cells; also called hCD3; CD3 on Jurkat cells
Put plainly: FACS on Jurkat cells.
Molecule B5 gave an EC50 of 0.567 nM and a Top signal of 1760.

For the molecule B4, the concentration giving a half-maximal response (EC50) amounted to 0.419 nM and the Top signal came to 2780.

With B6, it took 1.77 nM to reach a half-maximal effect (EC50) and the Top signal worked out at 2280.

With B7, the half-maximal effective concentration (EC50) was 1.91 nM and the Top signal worked out at 3140.

On to B8, for which the EC50 was 1.47 nM and the Top signal was 3000.

The target in a further assay is T1, cynomolgus CD3. Put plainly: FACS on 293T-cynoCD3mix cells. The source holds these as a separate data set.
Consider B5, for which the EC50 worked out at 2.91 nM and the Top signal came to 57000.

In turn, B9 showed an EC50 of 2.64 nM and a Top signal of 45800.

The molecule B10 came in with an EC50 of 2.33 nM and a Top signal of 46900.

B11 gave a 50% effective concentration (EC50) of 2.81 nM and a Top signal of 45200.

B12: the midpoint of the response, the EC50, lay at 2.81 nM and the Top signal was found to be 52900.

Molecule B4 yielded an EC50 of 2.19 nM and a Top signal of 53900.

For B6, the EC50 came to 4.15 nM and the Top signal worked out at 55200.

In turn, B8 had an EC50 of 4.34 nM and a Top signal of 60000.

A further assay has as its target T2, human CD3. Nature of the assay: cell-based or functional assay.
Consider B5, for which the “EC50 (Jurkat-NFAT-luciferase activation)” value was 33.6 nM and the “Top signal (Jurkat-NFAT-luciferase activation)” value was found to be 682.

As for B9, the “EC50 (Jurkat-NFAT-luciferase activation)” value stood at 32.4 nM and the “Top signal (Jurkat-NFAT-luciferase activation)” value was found to be 482.

Regarding B10, the “EC50 (Jurkat-NFAT-luciferase activation)” value worked out at 61.7 nM and the “Top signal (Jurkat-NFAT-luciferase activation)” value amounted to 337.

Consider B11, for which the “EC50 (Jurkat-NFAT-luciferase activation)” value is 28 nM and the “Top signal (Jurkat-NFAT-luciferase activation)” value is 290.

Turning to B4, the “EC50 (Jurkat-NFAT-luciferase activation)” value stood at 33 nM and the “Top signal (Jurkat-NFAT-luciferase activation)” value was 421.

Turning to B6, the “EC50 (Jurkat-NFAT-luciferase activation)” value is 57.4 nM and the “Top signal (Jurkat-NFAT-luciferase activation)” value is 428.

For B7, the “EC50 (Jurkat-NFAT-luciferase activation)” value is 59.4 nM and the “Top signal (Jurkat-NFAT-luciferase activation)” value was determined as 753.

Turning to B8, the “EC50 (Jurkat-NFAT-luciferase activation)” value is 68.4 nM and the “Top signal (Jurkat-NFAT-luciferase activation)” value turned out to be 811.

Another assay has as its target T2, human CD3. Put plainly: FACS on Jurkat cells. This is another data set of the same source.
For the molecule B1, the concentration for a half-maximal effect (EC50) worked out at 0.659 nM and the “Top FACS signal” value stood at 2680.

As to B2, the EC50 came out at 0.671 nM and the “Top FACS signal” value was determined as 2680.

As to B3, a half-maximal effect (EC50) was put at 0.891 nM and the “Top FACS signal” value was found to be 2730.

B4: it took 0.649 nM to reach a half-maximal effect (EC50) and the “Top FACS signal” value worked out at 2780.

As to B7, the EC50 worked out at 1.35 nM and the “Top FACS signal” value turned out to be 2370.

Another assay concerns the target T2, human CD3. Put plainly: FACS on Jurkat cells. This is another data set of the same source.
In the case of B7, a half-maximal effect (EC50) was put at 1.6 nM and the “Top FACS signal” value is 1740.

The target of the next assay is T2, human CD3. Put plainly: cell-based or functional assay. The source holds these as a separate data set.
On to B7, for which the “EC50_Fold change (Jurkat-NFAT-luciferase activation, normalized to ch40-C12-C10-E9; mean)” value came to 8.17 fold and the “Top FACS signal_Fold change (Jurkat-NFAT-luciferase activation, normalized to ch40-C12-C10-E9; mean)” value was found to be 0.48 fold.

Another assay concerns the target T2, human CD3. Nature of the assay: cell-based or functional assay. The source holds these as a separate data set.
Consider B1, for which the “EC50_Fold change (Jurkat-NFAT-luciferase activation, normalized to ch147E11E2)” value came out at 1.36 fold and the “Top FACS signal_Fold change (Jurkat-NFAT-luciferase activation, normalized to ch147E11E2)” value is 0.68 fold.

In the case of B2, the “EC50_Fold change (Jurkat-NFAT-luciferase activation, normalized to ch147E11E2)” value turned out to be 2.12 fold and the “Top FACS signal_Fold change (Jurkat-NFAT-luciferase activation, normalized to ch147E11E2)” value worked out at 0.6 fold.

Take B3: the “EC50_Fold change (Jurkat-NFAT-luciferase activation, normalized to ch147E11E2)” value worked out at 1.66 fold and the “Top FACS signal_Fold change (Jurkat-NFAT-luciferase activation, normalized to ch147E11E2)” value turned out to be 0.76 fold.

On to B4, for which the “EC50_Fold change (Jurkat-NFAT-luciferase activation, normalized to ch147E11E2)” value stood at 1 fold and the “Top FACS signal_Fold change (Jurkat-NFAT-luciferase activation, normalized to ch147E11E2)” value is 1 fold.

On to B7, for which the “EC50_Fold change (Jurkat-NFAT-luciferase activation, normalized to ch147E11E2; mean)” value is 2.24 fold and the “Top FACS signal_Fold change (Jurkat-NFAT-luciferase activation, normalized to ch147E11E2; mean)” value was 0.5 fold.

The target of the next assay is T2, human CD3. Put plainly: FACS on Jurkat cells. The source holds these as a separate data set.
In the case of B7, the EC50 was 1.3 nM and the “Top FACS signal” value was found to be 2570.
